The results in this text go back to PMC7061092 (Physiological Reports, 2020).

One data set addresses WT hERG (Homo sapiens, UniProt Q12809). The conditions noted are these: for Isochronal percentage of hERG block (IhERG tail): terfenadine 100 nM, thioridazine 100 nM, dofetilide 10 nM, chloroquine 1 µM, ketoconazole 3 µM, mean ± SEM. The protocol: (§1) For transient transfection experiments, 24 hr after plating cells out, cells were transiently transfected with 0.5 µg of the F656V hERG construct using Lipofectamine^TM LTX (Invitrogen) according to the manufacturer's instructions. […] Cells were plated onto small sterilized glass coverslips 6 hr after transfection and recordings were made after at least 24 hr incubation at 37°C. Successfully transfected cells were identified using Dynabeads® (Invitrogen). All experimental data for the F656V hERG mutant channel were obtained from cells from a minimum of two transfections.
(§2) Recordings of hERG current (IhERG) and were made using an Axopatch 200 amplifier (Axon Instruments) and a CV201 head‐stage. Between 70%–80% of pipette series resistance was compensated. Voltage‐clamp commands were generated using “WinWCP” (John Dempster, Strathclyde University).
The A(x)1 and B(x)1 values were derived from Equation 1. […] Time courses of IhERG inhibition were fitted using either a single (Equation 3) exponential decay fit of the forms:(3) Y=Y^0-Plateau∗exp-K∗X+Plateau.
IhERG “tail” magnitude was measured relative to instantaneous current at −40 mV elicited by the brief (50 ms) depolarizing step that preceded the voltage command to +20 mV in the absence and presence of the drug. […] We also assessed the effects of drug block on IhERG time constants of deactivation. Tail currents on repolarization to −40mV were fitted using a biexponential to derive the fast τ1 and slow τ2 time constants of deactivation in control and after drug application.
In general terms: The hERG channel carries a current that helps repolarise heart muscle cells.

The target of another data set is F656V hERG (Homo sapiens, UniProt Q12809, F656V). Description: Whole-cell patch-clamp recording of IhERG in HEK 293 cells transiently transfected with F656V hERG at 37°C. The protocol:
The F656V hERG mutation (Lees‐Miller, Duan, Teng, & Duff, 2000) was generated using the QuickChange® site‐directed mutagenesis kit (Stratagene). In brief, a pair of complementary oligonucleotide primers containing the mutation (forward primer sequence 5′[…]3′ and reverse primer sequence 5′ […]3′, synthesized by Sigma‐Genosys) was used in a PCR reaction (95°C for 1 min, 60°C for 1 min, 68°C for 16 min for 18 cycles) with hERG in a modified pcDNA3.0 vector as a DNA template. A DpnI digest of the PCR mix was then performed for 1 hr at 37°C. Competent DH5α Escherichia coli (Invitrogen) were transformed using standard procedures. The mutation was confirmed by sequencing of the entire open reading frame (Eurofins MWG Operon).
as §1, §2
(In general: The patch-clamp technique gives a direct electrical read-out from membranes.)

The mark [1] stands for this setting: 30 nM BeKm-1, absence of erythromycin.
The mark [2] stands for this setting: 30 nM BeKm-1 in the maintained presence of 3 µM erythromycin.

Like-named read-outs stand apart in the source and are kept apart here. No end group written: not given here.

For the molecule `CCN(CC)CCCC(C)Nc1ccnc2cc(Cl)ccc12` (stereo not drawn) [Chloroquine, chloroquine], the “Isochronal percentage of hERG block (IhERG tail)” value at WT hERG (0 µM erythromycin) is on record as 48.4 ± 3.9 (n = 5) %; at WT hERG (preincubation with 3 µM erythromycin), 70.8 ± 5.3 (n = 5) %; at WT hERG (preincubation with 30 µM erythromycin), 77.8 ± 0.6 (n = 4) %. In addition, at WT hERG (pretreatment with low concentrations of erythromycin (≤30 µM)), the “nature of interaction with erythromycin pretreatment on hERG block” value was “strong synergism”.

For the molecule “BeKm‐1: peptide (scorpion) toxin, in house Fmoc-synthesized, externally acting hERG blocker (RPTDIKCSESYQCFPVCKSRFGKTNGRCVNGFCDCF; ends and bridges not checked; cysteine pairing not given here; UniProt Q9BKB7 22-57, looked up)”, in the data set with WT hERG, the “% of IhERG block at steady state” value is recorded as 51.4 ± 4.6%, the “WT IhERG tail block” value is listed as 46.8 ± 5.0%, the “reduction of WT IhERG tail” value stood at 52.2 ± 3.4% and the “time course of WT hERG block” value is recorded as “delayed”. Further, in the data set with F656V hERG (setting [1]), the “reduction of F656V IhERG” value worked out at 74.5 ± 1.6% and the “thalf of F656V IhERG inhibition” value amounted to 14.2 ± 3.3 s. In addition, in the data set with F656V hERG (setting [2]), the “block of F656V IhERG at steady state” value is 69.4 ± 5.1% and the “thalf of F656V IhERG inhibition” value is recorded as 20.7 ± 4.6 s.
